Test [1] has as its target T1, 人PD-L1抗原 (human PD-L1 antigen) (human, UniProt Q9NZQ7 19-238, limits assumed).
T1 construct: also called 专有PD-L1抗原
Briefly: BLI (Octet Red384), as in Example 3, human PD-L1 antigen on AR2G sensor, antibody as analyte, mean of three measurements. (In BLI a coated tip is dipped into the sample, and binding shifts an interference pattern.)

Test [2] addresses 人CD47抗原 CD47-FcLama (human CD47 antigen) (human, UniProt Q08722 19-139). In words: BLI (Octet Red384), CD47-FcLama covalently on AR2G sensor, antibody as analyte (68.9, 34.4, 17.2 nM), 1:1 global fit, mean of three measurements.
Test [3] concerns the target T2, 食蟹猴CD47抗原 cynoCD47(ARCO), Cynomolgus/Rhesus CD47 protein, Fc Tag, cat. CD7-C5252 (cynomolgus monkey / rhesus monkey).
T2 construct: Commercial protein
In words: BLI (Octet Red384), as in Example 3, cynoCD47-Fc on AR2G sensor, antibody as analyte, mean of three measurements.

Chain of 人CD47抗原 CD47-FcLama (human CD47 antigen) (Q08722 19-139): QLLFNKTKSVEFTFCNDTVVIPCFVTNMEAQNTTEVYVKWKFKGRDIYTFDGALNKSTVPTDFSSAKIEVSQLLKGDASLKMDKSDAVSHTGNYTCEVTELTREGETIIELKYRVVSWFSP
T1 sequence (Q9NZQ7 19-238 limits assumed): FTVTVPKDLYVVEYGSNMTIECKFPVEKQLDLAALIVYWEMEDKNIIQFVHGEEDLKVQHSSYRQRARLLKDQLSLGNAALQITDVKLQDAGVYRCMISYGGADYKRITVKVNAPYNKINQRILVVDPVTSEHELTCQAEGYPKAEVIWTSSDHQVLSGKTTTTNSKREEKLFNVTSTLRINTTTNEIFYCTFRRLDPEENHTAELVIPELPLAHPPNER

B1: 双特异性抗体09-001 (bispecific antibody 09-001, binds CD47 and PD-L1, common light chain) (bispecific antibody, human IgG1, lambda, L234A L235A)
heavy 1: not shown
light: QTVVTQEPSLSVSPGGTVTLTCGLSSGTVTAINYPGWYQQTPGQAPRTLIYNTNTRHSGVPDRFSGSISGNKAALTITGAQAEDEADYYCALYMGNGGHMFGGGTKLTVLGQPKAAPSVTLFPPSSEELQANKATLVCLISDFYPGAVTVAWKADSSPVKAGVETTTPSKQSNNKYAASSYLSLTPEQWKSHRSYSCQVTHEGSTVEKTVAPTECS
heavy 2: EVQLVESGGGVVRPGGSLRLSCAASGFTFDDYAMSWVRQAPGKGLEWVSDISWSGSNTNYADSVKGRFTISRDNAKNSLYLQMNSLRAEDTALYHCARAPLLLAMTFGVGSWGQGTLVTVSSASTKGPSVFPLAPSSKSTSGGTAALGCLVKDYFPEPVTVSWNSGALTSGVHTFPAVLQSSGLYSLSSVVTVPSSSLGTQTYICNVNHKPSNTKVDKKVEPKSCDGPGGTCPPCPAPEAAGGPSVFLFPPKPKDTLMISRTPEVTCVVVDVSHEDPEVKFNWYVDGVEVHNAKTKPREEQYNSTYRVVSVLTVLHQDWLNGKEYKCKVSNKALPAPIEKTISKAKGQPREPQVCTLPPSREEMTKNQVSLSCAVKGFYPSDIAVEWESNGQPENNYKTTPPVLDSDGSFFLVSKLTVDKSRWQQGNVFSCSVMHEALHNHYTQKSLSLSPGK
Take B1: the Kd in test [1] was 2.54 nM; in test [2], 82.5 nM; in test [3] it was 57 nM.

The term Kd denotes the constant that tells how readily two partners part at equilibrium.

The values above are taken from patent CN117858904A (dated 2024).
